According to doi:10.1101/2020.01.30.926501 (bioRxiv, 2020):

Target: the molecule itself
Test: single-molecule GFP fluorescence intensity

Protein	stoichiometry N
Kif5b-GFP (domain or fragment, human, UniProt P33176 1-905, looked up) MADLAECNIKVMCRFRPLNESEVNRGDKYIAKFQGEDTVVIASKPYAFDRVFQSSTSQEQVYNDCAKKIVKDVLEGYNGTIFAYGQTSSGKTHTMEGKLHDPEGMGIIPRIVQDIFNYIYSMDENLEFHIKVSYFEIYLDKIRDLLDVSKTNLSVHEDKNRVPYVKGCTERFVCSPDEVMDTIDEGKSNRHVAVTNMNEHSSRSHSIFLINVKQENTQTEQKLSGKLYLVDLAGSEKVSKTGAEGAVLDEAKNINKSLSALGNVISALAEGSTYVPYRDSKMTRILQDSLGGNCRTTIVICCSPSSYNESETKSTLLFGQRAKTIKNTVCVNVELTAEQWKKKYEKEKEKNKILRNTIQWLENELNRWRNGETVPIDEQFDKEKANLEAFTVDKDITLTNDKPATAIGVIGNFTDAERRKCEEEIAKLYKQLDDKDEEINQQSQLVEKLKTQMLDQEELLASTRRDQDNMQAELNRLQAENDASKEEVKEVLQALEELAVNYDQKSQEVEDKTKEYELLSDELNQKSATLASIDAELQKLKEMTNHQKKRAAEMMASLLKDLAEIGIAVGNNDVKQPEGTGMIDEEFTVARLYISKMKSEVKTMVKRCKQLESTQTESNKKMEENEKELAACQLRISQHEAKIKSLTEYLQNVEQKKRQLEESVDALSEELVQLRAQEKVHEMEKEHLNKVQTANEVKQAVEQQIQSHRETHQKQISSLRDEVEAKAKLITDLQDQNQKMMLEQERLRVEHEKLKATDQEKSRKLHELTVMQDRREQARQDLKGLEETVAKELQTLHNLRKLFVQDLATRVKKSAEIDSDDTGGSAAQKQKISFLENNLEQLTKVHKQLVRDNADLRCELPKLEKRLRATAERVKALESALKEAKENASRDRKRYQQEVDRIKEA	2
Kif14(768)-eGFP (domain or fragment, human, UniProt Q15058 1-768, looked up) MSLHSTHNRNNSGDILDIPSSQNSSSLNALTHSSRLKLHLKSDMSECENDDPLLRSAGKVRDINRTYVISASRKTADMPLTPNPVGRLALQRRTTRNKESSLLVSELEDTTEKTAETRLTLQRRAKTDSAEKWKTAEIDSVKMTLNVGGETENNGVSKESRTNVRIVNNAKNSFVASSVPLDEDPQVIEMMADKKYKETFSAPSRANENVALKYSSNRPPIASLSQTEVVRSGHLTTKPTQSKLDIKVLGTGNLYHRSIGKEIAKTSNKFGSLEKRTPTKCTTEHKLTTKCSLPQLKSPAPSILKNRMSNLQVKQRPKSSFLANKQERSAENTILPEEETVVQNTSAGKDPLKVENSQVTVAVRVRPFTKREKIEKASQVVFMSGKEITVEHPDTKQVYNFIYDVSFWSFDECHPHYASQTTVYEKLAAPLLERAFEGFNTCLFAYGQTGSGKSYTMMGFSEEPGIIPRFCEDLFSQVARKQTQEVSYHIEMSFFEVYNEKIHDLLVCKDENGQRKQPLRVREHPVYGPYVEALSMNIVSSYADIQSWLELGNKQRATAATGMNDKSSRSHSVFTLVMTQTKTEFVEGEEHDHRITSRINLIDLAGSERCSTAHTNGDRLKEGVSINKSLLTLGKVISALSEQANQRSVFIPYRESVLTWLLKESLGGNSKTAMIATISPAASNIEETLSTLRYANQARLIVNIAKVNEDMNAKLIRELKAEIAKLKAAQRNSRNIDPERYRLCRQEITSLRMKLHQQERDMAEMQRV	2
